Assay results published in patent US20080242557A1, “System For Detecting Molecular Interactions” (CGK CO., LTD., priority 2004, published 2008).

Legend:
Caspase-3 = target: T1, Caspase-3 (Homo sapiens, UniProt P42574); test: Magnetic-field translocation of mRFP-Caspase3 by DEVD-MNPs in HeLa cells; assay type: cell-based; conditions: EGFP expressing cells as negative control showed no motion
T1 construct: mRFP (N); expressed in transfected cells; host or cells: HeLa
T1 sequence (P42574 29-277): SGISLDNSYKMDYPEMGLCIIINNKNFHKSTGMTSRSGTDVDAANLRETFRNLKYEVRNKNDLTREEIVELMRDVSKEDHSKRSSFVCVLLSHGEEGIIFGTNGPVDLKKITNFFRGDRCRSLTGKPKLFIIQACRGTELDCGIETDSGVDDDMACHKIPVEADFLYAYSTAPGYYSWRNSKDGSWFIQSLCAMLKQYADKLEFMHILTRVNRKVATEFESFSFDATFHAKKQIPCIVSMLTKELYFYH
Procedure: A DEVD-MNPs complex was obtained by reacting a Streptavidin nanoparticle, caspase-3 inhibitor II (DEVD)-biotin conjugate (CALBIOCHEM) and TATHA2-biotin at 40 C for 1 hr while agitating the reaction mixture. Unbound ligands were removed from the reaction mixture by purifying the complex using a paramagnet. After introducing mRFP-Caspase3 or EGFP expressing plasmid into a HeLa cell (ATCC), the cell was incubated. The DEVD-MNPs were introduced into the cell, and a magnetic field (M.F.) was externally applied to the cell using a paramagnet or electromagnet. The confocal images were captured using a confocal laser microscope (Carl Zeiss) for the live cells while applying magnetic field as well as not applying magnetic field.

[1] = test system: IκBα phosphorylation (IKK); test: Detection of IκBα phosphorylation: translocation of IκBα-mRFP with anti-phospho-IκBα (Ser32)-MNPs in HeLa cells; assay type: cell-based; conditions: HeLa cells treated with various chemical compounds and growth factors

Substance | localization of cells expressing mRFP-Caspase3 by external magnetic force (Caspase-3) | translocation of the IκBα-mRFP fusion protein under the magnetic field (interaction activator screening) [1]
DEVD-MNPs: Streptavidin nanoparticle reacted with caspase-3 inhibitor II (DEVD)-biotin conjugate and TATHA2-biotin | only the cells (indicated with red arrows) expressing mRFP-Caspase3 were localized | 
TNF-α |  | observed to translocate the IκBα-mRFP fusion protein
